The text below walks through data of publication doi:10.1101/2022.06.04.494830.

The experiment addresses EWS low-complexity domain (EWS^LCD, EWS 1-264) (human) (UniProt Q01844). The experiment in a line: co-sedimentation.

Sequence of EWS low-complexity domain (EWS^LCD, EWS 1-264) (human) (Q01844 1-264, one chain of several): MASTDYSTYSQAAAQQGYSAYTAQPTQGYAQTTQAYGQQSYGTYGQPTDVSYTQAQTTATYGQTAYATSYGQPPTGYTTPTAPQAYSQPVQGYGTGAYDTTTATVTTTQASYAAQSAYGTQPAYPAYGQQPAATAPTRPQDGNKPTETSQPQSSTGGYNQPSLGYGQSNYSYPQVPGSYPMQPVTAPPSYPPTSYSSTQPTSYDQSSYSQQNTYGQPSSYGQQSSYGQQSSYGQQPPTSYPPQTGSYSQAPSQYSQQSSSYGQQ

The substance “FLI1 DNA-binding domain (FLI1^DBD) (domain or fragment)” showed a percent of total FLI1^DBD in the pellet fraction of 55%.
